Experiments:
Experiment in all cases: cell-based or functional assay
Cynomolgus monkey IL-6 = target: T1, Cynomolgus monkey IL-6 (cynomolgus monkey, UniProt P79341 28-212, limits assumed)
T1 sequence (looked up): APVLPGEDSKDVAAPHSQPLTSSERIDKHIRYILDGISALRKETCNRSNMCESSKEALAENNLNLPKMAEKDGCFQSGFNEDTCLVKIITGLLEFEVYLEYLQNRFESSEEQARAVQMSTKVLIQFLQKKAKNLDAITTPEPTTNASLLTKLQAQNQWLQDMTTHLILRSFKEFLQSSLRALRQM

Rat IL-6 = target: T2, Rat IL-6 (rat, UniProt P20607 25-211, limits assumed)
T2 sequence (looked up): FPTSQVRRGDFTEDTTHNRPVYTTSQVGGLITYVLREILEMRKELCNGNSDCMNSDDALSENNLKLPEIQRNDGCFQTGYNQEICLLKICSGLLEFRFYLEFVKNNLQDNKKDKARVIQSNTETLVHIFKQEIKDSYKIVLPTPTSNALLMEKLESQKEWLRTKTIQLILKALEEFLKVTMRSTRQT

Mouse IL-6 = target: T3, Mouse IL-6 (mouse, UniProt P08505 25-211, limits assumed)
T3 sequence (looked up): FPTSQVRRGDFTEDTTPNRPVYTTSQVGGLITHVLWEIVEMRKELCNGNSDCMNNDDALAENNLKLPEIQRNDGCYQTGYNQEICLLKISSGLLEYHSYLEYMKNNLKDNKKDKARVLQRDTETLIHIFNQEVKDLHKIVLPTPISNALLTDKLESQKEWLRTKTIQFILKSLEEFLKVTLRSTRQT

Human IL-6 = Human IL-6 (human, UniProt P05231 30-212)

B1: Ab1 (antibody, human IgG1, kappa, N297A, V domains shown)
VH: EVQLVESGGGLVQPGGSLRLSCAASGFSLSNYYVTWVRQAPGKGLEWVGIIYGSDETAYATSAIGRFTISRDNSKNTLYLQMNSLRAEDTAVYYCARDDSSDWDAKFNLWGQGTLVTVSS
VL: AIQMTQSPSSLSASVGDRVTITCQASQSINNELSWYQQKPGKAPKLLIYRASTLASGVPSRFSGSGSGTDFTLTISSLQPDDFATYYCQQGYSLRNIDNAFGGGTKVEIKR
IC50 (pM), T1165 cell proliferation assay (Cynomolgus monkey IL-6): 12 pM | IC50 (pM), T1165 cell proliferation assay (Rat IL-6): 2060 pM | IC50 (pM), T1165 cell proliferation assay (Mouse IL-6): 1840 pM | IC50 (pM), T1165 cell proliferation assay (Human IL-6): 13 pM
